Patent publication US20260115299A1, “CALSEQUESTRIN-BASED METAL ION REACTIVE PARTICLE AND USES THEREOF” (TOOLBIO. CO.,LTD., priority 2022, published 2026)

What was measured:
HaCaT cells [1] = assay: In vitro proliferation test (XTT); type: cell-based; details: 2.5 nM, 2 days, compared with native KGF
Procedure: HaCaT cells in 96-well plates were aliquoted at a specific cell/well and incubated at 37° C. in a 5% CO2 incubator with 10% FBS and 1% P/S-DMEM for one day. Starvation was performed with FBS Free DMEM for one day. After washing twice with DPBS, CSQ-KGF, CSQ, and KGF were added to FBS-free DMEM at a concentration of 2.5 nM, and the sample was divided so that the total volume became 200 ? . After incubation in an incubator for 2 days, XTT cell availability kit reagents were aliquoted, and then 450 nm absorbance was determined with a microplate reader.

HaCaT cells [2] = assay: In vitro migration test (scratch); type: cell-based; details: 10 nM, 24-hour intervals, compared with native KGF
Procedure: HaCaT cells were aliquoted into 24-well plates at a specific cell/well and incubated at 37° C. in a 5% CO2 incubator with 10% FBS and 1% P/S-DMEM for one day. Starvation was performed with FBS Free DMEM for one day. Cells were scratched in a straight line using a 1000 ? pipette tip. After washing twice with DPBS, CSQ-KGF, CSQ, and KGF were added to FBS Free DMEM at a concentration of 10 nM, and the sample was divided so that the total volume became 500 ? . While culturing in a 5% CO2 incubator at 37° C. scratches were observed using a phase-contrast microscope at 24-hour intervals from […], and photographs were taken. The extent of wound closure was compared by analyzing the scratch area of the captured images using ImageJ.

B1: CSQ-KGF: fusion protein of human calsequestrin CSQ1 (SEQ ID No. 1) and KGF (SEQ ID No. 12) (protein)
chain: QEGLDFPEYDGVDRVINVNAKNYKNVFKKYEVLALLYHEPPEDDKASQRQFEMEELILELAAQVLEDKGVGFGLVDSEKDAAVAKKLGLTEVDSMYVFKGDEVIEYDGEFSADTIVEFLLDVLEDPVELIEGERELQAFENIEDEIKLIGYFKSKDSEHYKAFEDAAEEFHPYIPFFATFDSKVAKKLTLKLNEIDFYEAFMEEPVTIPDKPNSEEEIVNFVEEHRRSTLRKLKPESMYETWEDDMDGIHIVAFAEEADPDGFEFLETLKAVAQDNTENPDLSIIWIDPDDFPLLVPYWEKTFDIDLSAPQIGVVNVTDADSVWMEMDDEEDLPSAEELEDWLEDVLEGEINTEDDDDDDDDMCNDMTPEQMATNVNCSSPERHTRSYDYMEGGDIRVRRLFCRTQWYLRIDKRGKVKGTQEMKNNYNIMEIRTVAVGIVAIKGVESEFYLAMNKEGKLYAKKECNEDCNFKELILENHYNTYASAKWTHNGGEMFVALNQKGIPVRGKKTKKEQKTAHFLPMAIT
HaCaT cells [1]
  proliferation efficacy (450 nm absorbance, XTT): same efficacy as native KGF
HaCaT cells [2]
  migration efficacy (extent of wound closure, scratch area): same efficacy as native KGF
